Test results published in patent US20240043504A1 (published 2024).
Positions count from the first letter of the chain named.

B1: mAb10957 (antibody, V domains shown)
VH: EVQLVESGGGLVQPGGSLRLSCAASGVTVSSNYMSWVRQAPGKGLEWVSVIYSGGSTFYADSVKGRFTISRDNSKNTLFLQMNSLRIEDTAVYYCARDLGPYGMDVWGQGTTVTVSS
VL: DIQLTQSPSFLSASVGDRVTITCRASQGISSYLAWYQQKPGKAPKLLIYAASTLQSGVPSRFSGSGSGTQFILTISSLQPEDFATYYCQQLNSYPGFTFGPGTKVDIKR
B2: mAb10964 (antibody, V domains shown)
VH: QVQLQESGPGLVKPSETLSLTCTVSGGSINNYYWIWIRQPPGKGLEWIGYIYHSGSTNYNPSLKSRVTISVDTSKNQFSLKVSSVTAADTAVYYCANMVRGVYEDDYWGQGTLVTVSS
VL: DIQMTQSPSSLSASVGDRVTITCRASQSISNYLNWYQQKPGKAPKLLIFAASSLRSGVPSRFSGSGSGTDFTLTISSLHPEDFATYYCQQNYNTPLTFGPGTKVDIKR
B3: mAb10965 (antibody, V domains shown)
VH: EVQLVESGGGLIQPGGSLRLSCAASVFTVSYNYMSWVRQAPGKGLEWVSVIYSGGSTYYADSVKGRFTISRDNSKNTLYLQMNSLRAEDTAVYYCARALPGWGGSFEYFDYWGQGTLVTVSS
VL: not shown
B4: mAb10966 (antibody, V domains shown)
VH: EVQLVESGGGLVQPGGSLRLSCAASGLTVSSNYMSWVRQAPGKGLEWVSVIYSGGSTFYADSVKGRFTISRDNSKNTLYLQMNSLRPEDTAVYYCAREGRIAATGYGMDVWGQGTTVTVSS
VL: not shown
B5: mAb10967 (antibody, V domains shown)
VH: EVQLVESGGGLVQPGGSLRLSCAASGFTVSSNYMSWVRQAPGKGLEWVSVIYPGGSTFYADSVKGRFTISRDNSKNTLYLQMNSLRAEDTAVYYCARDQRDFAWGQGTLVTVSS
VL: DIQMTQSPSSLSASVGDRVTITCQASQDISNYLNWYQQKPGKAPKLLIYDASNLETGVPSRFSGSGSGTDFTFTISGLQPEDIATYYCQQYDNLPPTFGQGTRLEIKR
B6: mAb10969 (antibody, V domains shown)
VH: QVQLVESGGGVVQPGRSLRLSCAASGFTFSSYAMHWVRQAPGKGLEWVAVISYDGSNKYYADSVKGRFTISRDNSKNTLYLQMNSLRAEDTAVYYCARDGRTITMVRGVIDDAFDIWGQGTMVTVSS
VL: not shown
B7: mAb10971 (antibody, V domains shown)
VH: B1 VH with V12I, A60S, T68S, F79Y, I87A, G100Y, P101Y
VL: B1 VL with S31T, Q70E, I72T, N92D, F97L, P101G, D106E
B8: mAb10982 (antibody, V domains shown)
VH: EVQLVESGGGLVQPGGSLRLSCAASGLTVSSNYMSWVRQAPGKGLEWVSVIYSGGTTYYADSVKGRFTISRHNSKNTLSLQMNSLRAEDTAVYYCARGEGANYYGMDVWGQGTTVTVSS
VL: QSVLTQPPSVSGAPGQRVTISCTGSSSNIGTGYDVHWYQQLPGTAPKLLIYGNSNRPSGVPDRFSGSKSGTSASLAITGLQAEDEADYYCQSYDSSLSGYVVFGGGTKLTVLG
B9: mAb10984 (antibody, V domains shown)
VH: EVQLVESGGGLVQPGGSLRLSCAASGLTVNRNYMSWVRQAPGKGLEWVSLIYSGGSTYYADSVKGRFTISRDNSKNTLYLQMNSLRLEDTAVYYCARGELGIPYGMDVWGQGTTVTVSS
VL: QSVLTQPPSVSAAPGQKVTISCSGSSSNIGNNYVSWYQQLPGTAPKLLIYDNNKRPSGIPDRFSGSKSGTSATLGITGLQTGDEADYYCGTWDSSLSAGVFGGGTKLTVLG
B10: mAb10985 (antibody, V domains shown)
VH: EVQLVESGGGLVQPGRSLRLSCAASGFTFDDYAMHWVRQAPGKGLEWVSGISWNRGSIGYADSVKGRFTISRDNAKNSLYLQMSSLRAEDTALYYCAKDGERWDSVVVPSARNGMDVWGQGTTVTVSS
VL: B8 VL with T31A, Y100S, V101Y, G105T, L109V
B11: mAb10986 (antibody, V domains shown)
VH: EVQLVESGGGLVQPGGSLRLSCAASEFTVSSNYMSWVRQAPGKGLEWVSVIYSGGSTFYADSVKGRFTISRDNSKNTLYLQMNSLRAEDTAVYYCARALPYGDLHFDYWGQGTLVTVSS
VL: B8 VL with S54T, G99D, Y100S, V101Y, G105T, L109V
B12: mAb10989 (antibody, V domains shown)
VH: QVQLVQSGAEVKKPGASVKVSCKASGYIFTGYYMHWVRQAPGQGLEWMGWINPNSGGANYAQKFQGRVTLTRDTSITTVYMELSRLRFDDTAVYYCARGSRYDWNQNNWFDPWGQGTLVTVSS
VL: QSALTQPASVSGSPGQSITISCTGTSSDVGTYNYVSWYQQHPGKAPKLMIFDVSNRPSGVSDRFSGSKSGNTASLTISGLQAEDEADYYCSSFTTSSTVVFGGGTKLTVLG
B13: mAb10998 (antibody, V domains shown)
VH: EVQLVESGGGLVHPGGSLRLSCAASGLTVSSNYMSWVRQAPGKGLEWVSVIYSGGSTYYADSVKGRFTISRHNSKNTLFLQMNSLRAEDTAVYYCARDRPITGTTLDVWGQGTTVTVSS
VL: DIQMTQSPSSLFASVGDRVTITCRASQSISSYLNWYQQKPGKAPKLLIYAASSLQSGVPSRFSGSGSGTDFTLTISSLQPEDFAFYYCQQTYSTPPITFGQGTRLEIKR
B14: mAb11002 (antibody, V domains shown)
VH: EVQLVESGGGLVQPGGSLRLSCAASGFTVSSNYMSWVRQAPGKGLEWVSVIYSGGSTFYADSVKGRFTISRHNSKNTLYLQMNSLRAEDTAVYYCAREGYGMDVWGQGTTVTVSS
VL: not shown
B15: mAb11004 (antibody, V domains shown)
VH: QVQLVESGGGVVQPGRSLRLSCVASGFTFSIYGMDWVRQAPGKGLEWVAVISYDGSNKYYADSVKGRFTISRDNSKNTLYLQMNSLRPEDTAVYYCAKDREAAADAFDIWGQGTMVTVSS
VL: DIQMTQSPSSVSASVGDRVTITCRASQGISSWLAWYQQKPGKAPKLLIYAASSLHSGVPSRFSGSGSGTDFTLTISSLQPEDFATYYCQQANSFRLTFGGGTKVEIKR
B16: mAb11006 (antibody, V domains shown)
VH: EVQLVESGGGLVQPGGSLRLSCAASGFIVSRNYMSWVRQAPGKGLEWVSVIYSGGSTFYADSVKGRFTISRHNSKNTLYLQMNSLKAEDTAVYYCARELRGYFDYWGQGTLVTVSS
VL: DIQLTQSPSFLSASVGDRVTITCWASQGISSYLAWYQQKPGKAPKLLIYAASTLQSGVPSRFSGSGSGTEFTLTISSLQPEDFATYYCQLLNSYPYTFGQGTKLEIKR
B17: mAb11008 (antibody, V domains shown)
VH: EVQLVESGGGLVQPGGSLRLSCAASGFTVSSNYMTWVRQAPGKGLEWVSVIYSGGSTFYADSVKGRFTISRHNSENTLYLQMNSLRAEDTAVYYCARDLAAAGTDYWGQGALVTVSS
VL: B16 VL with E81D, L90H, P95L
B18: mAb11010 (antibody, V domains shown)
VH: QVQLVESGGGVVQPGRSLRLSCAASGFTFSSYGMHWVRQAPGKGLEWVAVISYDGSYKYYADSVKGRFTISRDNSKNTLYLQMNSLRAEDTAVYYCAIDGGTVTTIFDYWGQGTLVTVSS
VL: not shown
B19: mAb10913 (antibody, V domains shown)
VH: EVQLVESGGGLVQPGGSLRLSCAASGFTFRNYEMNWVRQAPGKGLEWVSYITSSGSTMYYADSVKGRFTISRDNAKNSLYLQMNSLRAEDTAVYYCARDGFYYYYAMDVWGQGTTVTVSS
VL: QSVLTQPPSVSAAPGQKVTISCSGSSSNIGNNYVSWYQQLPGTAPKLLIYDNNKRPSGIPDRFSGSKSGTSATLGITGLQTGDEADYYCGTWDSSLSVGRVFGTGTKVTVLG
B20: mAb10914 (antibody, V domains shown)
VH: B1 VH with V27L, T28I, S31R, S35I, D72H, F79Y, I87A, P101T, Y102G
VL: B16 VL with L90Q, Y96L, Q100G, L104V
B21: mAb10915 (antibody, V domains shown)
VH: B16 VH with I28T, R31S, S35N, K86R, A87P, E98D, R100G
VL: not shown
B22: mAb10920 (antibody, V domains shown)
VH: QVQLVESGGGVVQPGRSLRLSCAASGFTFSYYGMHWVRQAPGKGLEWVAVIWYDGSNKFYADSVKGRFTISRDNSKNTLYLQMNSLRAEDTAVYYCAAARPGYYYGMDVWGQGTTVTVSS
VL: DIQMTQSPSSLSASVGDRVTITCRASQGISNYLAWFQQKPGKAPNSLIYAASSLQRGVPSKFSGSGSGTDFTLTISSLQPEDFATYYCQQYNSYPRTFGQGTKVEIKR

The binders below were run against SARS-COV-2 RBD extracellular domain expressed with a C-terminal mouse IgG2a (SARS-CoV-2) (assay: SPR Biacore, mAb captured via anti-hFc, 25 C).
With B1 the Kd was 0.0327 nM and the “t½” value was 5.75 h.
In the case of B2, the Kd is reported as 0.00397 nM and the “t½” value is reported as 5.22 h.
For B3, the Kd was 0.225 nM and the “t½” value was 1.23 h.
With B4 the Kd was 0.0224 nM and the “t½” value was 5.71 h.
For B5, the Kd was 0.0203 nM and the “t½” value was 14.3 h.
In the case of B6, the Kd is reported as 0.216 nM and the “t½” value is reported as 1.93 h.
B7 was tested, and the Kd was 0.0292 nM, the koff was 4.09e-05 s⁻¹ and the kon was 1.4e+06 M⁻¹ s⁻¹. The “t½” value was 4.71 h.
Binder B8 has a Kd of 0.0886 nM, a koff of 8.06e-05 s⁻¹ and a kon of 910000 M⁻¹ s⁻¹. For the same binder, the “t½” value was 2.39 h.
B9 was tested, and the Kd was 0.0286 nM and the “t½” value was 4.85 h.
With B10 the Kd was 0.0105 nM and the “t½” value was 2.26 h.
In the case of B11, the Kd is reported as 0.00888 nM and the “t½” value is reported as 8.02 h.
For B12, the Kd was 0.00895 nM and the “t½” value was 2 h.
B13 gave a Kd of 2.44 nM, a koff of 0.00358 s⁻¹ and a kon of 1.47e+06 M⁻¹ s⁻¹. For the same binder, the “t½” value was 0.0533 h.
With B14 the Kd was 4.46 nM and the “t½” value was 0.0783 h.
For B15, the Kd was 0.0921 nM, the koff was 6.4e-05 s⁻¹ and the kon was 695000 M⁻¹ s⁻¹. The “t½” value was 3.01 h.
In the case of B16, the Kd is reported as 0.158 nM and the “t½” value is reported as 3.69 h.
B17 was tested, and the Kd was 0.492 nM, the koff was 0.000192 s⁻¹ and the kon was 390000 M⁻¹ s⁻¹. For the same binder, the “t½” value was 1 h.
In the case of B18, the Kd is reported as 0.0789 nM and the “t½” value is reported as 2.14 h.

What follows are binders tested against SARS-COV-2 RBD extracellular domain expressed with a C-terminal mouse IgG2a (SARS-COV-2 RBD-mFc) (SARS-CoV-2) (assay: SPR, captured mAb, RBD-mFc in solution, 37 C).
Binder B19 has a Kd of 0.274 nM, a koff of 0.00173 s⁻¹ and a kon of 6.32e+06 M⁻¹ s⁻¹. The “t½” value was 0.112 h.
With B20 the Kd was 0.318 nM and the “t½” value was 0.875 h.
In the case of B21, the Kd is reported as 0.156 nM and the “t½” value is reported as 2.79 h.
For B22, the Kd was 0.119 nM and the “t½” value was 0.255 h.
